Data on 91 sequences can be found in the supplement of paper PMC9112550, “Optimization of the antimicrobial peptide Bac7 by deep mutational scanning” (BMC Biology, 2022).

In the data set the test system is Escherichia coli TOP10. Nature of the data set: shrunken log2 fold change of peptide-encoding DNA abundance (4.5 h post-induction vs induction); higher = less antimicrobial activity (less host growth inhibition). As to conditions: time post-induction: 4.5 h; library: site-saturation at positions 5, 18, 19, 20.
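Also: peptides expressed intracellularly from a pBAD plasmid library in pooled LB shake-flask culture, induced with 0.3% L-arabinose, DNA abundance read by NGS, three biological replicates, DESeq2 with apeglm shrinkage.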

As to RRIRCRPPRLPRPRPRPPYTPRP, the “shrunken log2 fold change” value was -0.343.
RRIRARPPRLPRPRPRPNYNPRP: the “shrunken log2 fold change” value is -0.556.
In the case of RRIRSRPPRLPRPRPRPHLFPRP, the “shrunken log2 fold change” value was -0.32.
Regarding RRIRKRPPRLPRPRPRPTRQPRP, the “shrunken log2 fold change” value was determined as 0.724.
The value for RRIRRRPPRLPRPRPRPKATPRP was 0.165.
The value for RRIRIRPPRLPRPRPRPEQHPRP was -0.0723; that for RRIRERPPRLPRPRPRPIAAPRP was 0.466.
The value for RRIRSRPPRLPRPRPRPTIDPRP was -0.00141; that for RRIRGRPPRLPRPRPRPRDWPRP was 1.25.
As to RRIRERPPRLPRPRPRPDNYPRP, the “shrunken log2 fold change” value is -0.0933.
RRIRVRPPRLPRPRPRPGVIPRP: the “shrunken log2 fold change” value stood at 0.0193.
Consider RRIRRRPPRLPRPRPRPEHAPRP, for which the “shrunken log2 fold change” value amounted to 0.686.
For RRIRDRPPRLPRPRPRPQEKPRP, the “shrunken log2 fold change” value came to 0.0105.
Turning to RRIRFRPPRLPRPRPRPHFVPRP, the “shrunken log2 fold change” value is -0.176.
The value for RRIRCRPPRLPRPRPRPRPEPRP was 0.44; that for RRIRCRPPRLPRPRPRPEKGPRP was 0.0373; that for RRIRIRPPRLPRPRPRPAMKPRP was -0.0563.
Consider RRIRTRPPRLPRPRPRPAQPPRP, for which the “shrunken log2 fold change” value came to 0.00354.
The value for RRIRNRPPRLPRPRPRPMKRPRP was 0.0981.
The value for RRIRCRPPRLPRPRPRPHLKPRP was -0.322; that for RRIRNRPPRLPRPRPRPEAEPRP was 0.497.
The value for RRIRSRPPRLPRPRPRPKAAPRP was 0.252.
RRIRIRPPRLPRPRPRPRPSPRP: the “shrunken log2 fold change” value is 0.322.
In the case of RRIRVRPPRLPRPRPRPTTAPRP, the “shrunken log2 fold change” value worked out at 0.181.
The value for RRIRIRPPRLPRPRPRPLQHPRP was -0.121.
Consider RRIRTRPPRLPRPRPRPRPIPRP, for which the “shrunken log2 fold change” value was -0.138.
The value for RRIRMRPPRLPRPRPRPITEPRP was -0.012; that for RRIRVRPPRLPRPRPRPWVLPRP was 0.054.
Regarding RRIRMRPPRLPRPRPRPGTWPRP, the “shrunken log2 fold change” value was found to be 0.043.
On to RRIRHRPPRLPRPRPRPGTHPRP, for which the “shrunken log2 fold change” value turned out to be 0.0646.
The value for RRIRMRPPRLPRPRPRPPNMPRP was 0.268; that for RRIRFRPPRLPRPRPRPTYKPRP was -0.42.
RRIRIRPPRLPRPRPRPLAVPRP: the “shrunken log2 fold change” value turned out to be 0.097.
Take RRIRGRPPRLPRPRPRPNTEPRP: the “shrunken log2 fold change” value stood at 0.299.
For the sequence RRIRYRPPRLPRPRPRPHITPRP, the “shrunken log2 fold change” value was -0.538.
For the sequence RRIRWRPPRLPRPRPRPFKIPRP, the “shrunken log2 fold change” value is -0.358.
With RRIRVRPPRLPRPRPRPTKEPRP, the “shrunken log2 fold change” value was -0.0294.
The value for RRIRFRPPRLPRPRPRPCGPPRP was 0.243; that for RRIRDRPPRLPRPRPRPIIRPRP was -0.0604; that for RRIRFRPPRLPRPRPRPAIFPRP was -0.416.
The value for RRIRMRPPRLPRPRPRPWGYPRP was 0.101; that for RRIRSRPPRLPRPRPRPENYPRP was -0.127.
Take RRIRWRPPRLPRPRPRPNTLPRP: the “shrunken log2 fold change” value is -0.359.
In the case of RRIRQRPPRLPRPRPRPQPHPRP, the “shrunken log2 fold change” value came out at 0.158.
Turning to RRIRNRPPRLPRPRPRPEGGPRP, the “shrunken log2 fold change” value is -0.00659.
The value for RRIRERPPRLPRPRPRPQFNPRP was -0.167.
As for RRIRTRPPRLPRPRPRPHISPRP, the “shrunken log2 fold change” value is -0.0286.
With RRIRVRPPRLPRPRPRPPGHPRP, the “shrunken log2 fold change” value is 0.246.
The value for RRIRLRPPRLPRPRPRPEQWPRP was -0.00018; that for RRIRQRPPRLPRPRPRPCYFPRP was -0.734; that for RRIRARPPRLPRPRPRPTNNPRP was 0.00693.
The value for RRIRGRPPRLPRPRPRPMDWPRP was 0.929; that for RRIRLRPPRLPRPRPRPARKPRP was 0.0589; that for RRIRFRPPRLPRPRPRPERSPRP was 0.0713.
Consider RRIRGRPPRLPRPRPRPHSLPRP, for which the “shrunken log2 fold change” value was -0.0762.
The value for RRIRMRPPRLPRPRPRPEKDPRP was 2.62; that for RRIRTRPPRLPRPRPRPSDIPRP was -0.0989; that for RRIRTRPPRLPRPRPRPHRNPRP was -0.677.
Consider RRIRMRPPRLPRPRPRPRILPRP, for which the “shrunken log2 fold change” value was determined as 0.0948.
With RRIRRRPPRLPRPRPRPMLGPRP, the “shrunken log2 fold change” value is 0.15.
As for RRIRWRPPRLPRPRPRPYFCPRP, the “shrunken log2 fold change” value is -0.298.
The value for RRIRKRPPRLPRPRPRPRAEPRP was 0.632; that for RRIRQRPPRLPRPRPRPQHCPRP was -0.076; that for RRIRVRPPRLPRPRPRPDIFPRP was -0.171.
The value for RRIRYRPPRLPRPRPRPDGLPRP was -0.528; that for RRIRGRPPRLPRPRPRPWRCPRP was 0.0546; that for RRIRHRPPRLPRPRPRPWVQPRP was 0.0187.
The value for RRIRKRPPRLPRPRPRPWPIPRP was 0.891; that for RRIRSRPPRLPRPRPRPNQAPRP was -0.169.
For RRIRNRPPRLPRPRPRPTCWPRP, the “shrunken log2 fold change” value worked out at 0.696.
With RRIRRRPPRLPRPRPRPWGAPRP, the “shrunken log2 fold change” value came to 0.483.
With RRIRQRPPRLPRPRPRPPECPRP, the “shrunken log2 fold change” value was -0.0742.
The value for RRIRTRPPRLPRPRPRPMQPPRP was 0.0715; that for RRIRARPPRLPRPRPRPKCQPRP was 0.432.
As to RRIRPRPPRLPRPRPRPTNAPRP, the “shrunken log2 fold change” value is 0.167.
The value for RRIRCRPPRLPRPRPRPKWLPRP was -0.0375.
The value for RRIRGRPPRLPRPRPRPPTNPRP was 0.866; that for RRIRQRPPRLPRPRPRPWYTPRP was -0.132.
As to RRIRVRPPRLPRPRPRPAVQPRP, the “shrunken log2 fold change” value is -0.121.
The value for RRIRIRPPRLPRPRPRPILPPRP was 0.0798; that for RRIRGRPPRLPRPRPRPSRDPRP was 0.921.
The value for RRIRARPPRLPRPRPRPVVPPRP was 0.496; that for RRIRNRPPRLPRPRPRPAFEPRP was 0.0155.
Turning to RRIRYRPPRLPRPRPRPKGEPRP, the “shrunken log2 fold change” value was -0.212.
The value for RRIRMRPPRLPRPRPRPVMKPRP was 0.0713; that for RRIRDRPPRLPRPRPRPKWCPRP was 0.135.
The value for RRIRKRPPRLPRPRPRPSYDPRP was 0.0212; that for RRIRLRPPRLPRPRPRPKWCPRP was 0.0847.
Regarding RRIRYRPPRLPRPRPRPEAVPRP, the “shrunken log2 fold change” value amounted to 0.0685.
The value for RRIRMRPPRLPRPRPRPWTTPRP was -0.0163; that for RRIRCRPPRLPRPRPRPACHPRP was -0.315.
